Experimental data as given in patent US8703698B2, “Compositions and methods for treating atherosclerosis” (The University of Chicago, priority 2003, dated 2014).

Assays:
[1] = tested on: J774 macrophages; assay: Cholesterol efflux from cholesterol-laden J774 macrophages to apolipoprotein liposomes with 8-bromo-cAMP or methyl-β-cyclodextrin; format: cell-based, mouse
From the text: The export process of cholesterol is coupled to the ATP binding cassette transporter (ABCA1) pathway. Lipid efflux to apolipoproteins has been shown previously to be stimulated by treatment of murine macrophages with cAMP analogues (Lin et al. 2002 Biochem Biophys Res. Commun. 290:663-669; Oram et al. 2000 J. Biol. Chem. 275:34508-34511). Also, the expression of ABCA1 is induced by cAMP treatment (Lin et al. 2002 Biochem Biophys Res. Commun. 290:663-669; Oram et al. 2000 J. Biol. Chem. 275:34508-34511). The inventors herein examined the effect of 8-bromo-cAMP (0.3 mM) on cholesterol efflux by liposomes containing various apolipoproteins when incubated with cholesterol-laden J774 macrophages. Such cells were pre-labeled with [^3H]-cholesterol in the presence of Sandoz 58-035, an ACAT inhibitor, to ensure that all of the radiolabeled cholesterol released from the cells was derived from the un-esterified cholesterol pool, and the cells were treated for 12 hours with 8-bromo-cAMP. This was followed by incubation with various acceptors. The fractional release of cellular labeled cholesterol was determined as a function of time.
To investigate whether an apolipoprotein free cholesterol acceptor such as cyclodextrin has the ability to catalyze the removal of cholesterol from macrophages, cholesterol-loaded and labeled J774 cells were incubated with liposomes and methyl-β-cyclodextrin (0.1 mM) (CD).
To examine whether cholesterol export from J774 cells to medium containing liposomes containing 2 μM murine apoA-1, SAA1.1 or SAA2.1 is a cAMP-dependent process, the radio-labeled cholesterol-laden cells were incubated overnight with 8-Br-cAMP (0.3 mM), prior to the addition of liposomes containing 2 μM murine apoA-1, SAA1.1 or SAA2.1 to the culture medium. Cholesterol efflux to the medium was then determined at the indicated time points as described above. Efflux of radioactive label to the medium was calculated as a percentage of total counts in each well.

[2] = biological target: T1, acyl CoA:cholesterol acyl transferase (Mus musculus, UniProt Q61263); assay: ACAT activity in macrophage post-nuclear homogenates; format: biochemical, murine; conditions: macrophage post-nuclear homogenates as enzyme source
T1 construct: host or cells: J774 mouse macrophages, cholesterol-loaded
T1 sequence (Q61263 1-540): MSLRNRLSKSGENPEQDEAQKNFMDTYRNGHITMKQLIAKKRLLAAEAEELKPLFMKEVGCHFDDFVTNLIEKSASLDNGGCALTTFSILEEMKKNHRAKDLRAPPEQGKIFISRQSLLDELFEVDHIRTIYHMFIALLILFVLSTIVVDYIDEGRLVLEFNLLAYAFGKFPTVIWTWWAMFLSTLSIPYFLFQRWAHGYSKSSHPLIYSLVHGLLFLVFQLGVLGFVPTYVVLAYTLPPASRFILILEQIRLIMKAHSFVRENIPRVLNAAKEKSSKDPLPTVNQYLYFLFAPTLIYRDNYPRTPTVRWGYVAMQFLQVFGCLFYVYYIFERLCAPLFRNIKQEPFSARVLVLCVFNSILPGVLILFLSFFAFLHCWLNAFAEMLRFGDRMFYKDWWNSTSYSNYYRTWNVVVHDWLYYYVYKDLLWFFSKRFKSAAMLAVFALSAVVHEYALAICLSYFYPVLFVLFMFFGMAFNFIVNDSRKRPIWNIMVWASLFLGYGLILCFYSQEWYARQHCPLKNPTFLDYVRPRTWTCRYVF
From the text: The in vitro effects of acute phase-HDL (AP-HDL;HDL-SAA) on acyl CoA:cholesterol acyl transferase and cholesterol ester hydrolase activities and on cellular cholesterol export were studied by the inventors using purified enzymes, cell homogenates, and whole cells. […] In contrast, murine SAA1.1 and apoA-1 had no effect. […] Using macrophages preloaded with radio-labeled cholesterol and injected intravenously into either inflamed or un-inflamed mice, it was shown that the inflamed mice, which have high SAA2.1 levels, effluxed cholesterol more rapidly and to a greater extent (6-fold greater) than their un-inflamed counterparts.

[3] = biological target: T1, acyl CoA:cholesterol acyl transferase; conditions: intact murine macrophages and post-nuclear homogenates; Ely et al. 2001; cited from earlier work

B1: GFFSFVHEAFQGAGDMWRAYTDMKEANWKNSDKYFHARGNYDAAQRGPGGVWAAEKISD GREAFQEFFGRGHEDTIADQEANRHGRSGKDPNYYRPPGLPDKY (protein, listed as Mus musculis)
chain: GFFSFVHEAFQGAGDMWRAYTDMKEANWKNSDKYFHARGNYDAAQRGPGGVWAAEKISDGREAFQEFFGRGHEDTIADQEANRHGRSGKDPNYYRPPGLPDKY
notes: full length murine serum amyloid A isoform 2.1 purified from acute phase plasma
increase in the initial rate of cholesterol efflux to liposomes after cAMP pre-treatment versus untreated cells ([1]; 8-bromo-cAMP 0.3 mM, 12 hours, Sandoz 58-035 present): 62.1%
further increase in cholesterol efflux by cAMP pre-treatment ([1]; cells exposed to liposomes and CD): 45.5%
increase in the initial rate of cholesterol efflux with CD treatment ([1]; methyl-β-cyclodextrin 0.1 mM plus liposomes): 4 fold
acyl CoA:cholesterol acyl transferase activity [2]: inhibit acyl CoA:cholesterol acyl transferase activity in a dose-dependent manner
macrophage ACAT activity [3]: inhibit macrophage acyl CoA:cholesterol acyl transferase (ACAT) activity
